Data as given in article PMC8053092, “Structural basis for substrate recognition and cleavage by the dimerization-dependent CRISPR–Cas12f nuclease” (Nucleic Acids Research, 2020).
Changes are numbered by the printed parent chain. Numbers in names are those of the source.

Key:
[1] = target: the molecule itself; assay: cryo-EM structure; Cas12f D510A with sgRNA (222 nt) and 60-bp target dsDNA (TTTA PAM), ratio 1:1.2:1.3, 37°C, purified by SEC in 25 mM Tris-HCl pH 7.6, 150 mM NaCl, 2 mM DTT, 1 mM MgCl2; 3.1 Å
[2] = target: the molecule itself; assay: cryo-EM structure; Cas12f with sgRNA, ratio 1:1.2, 37°C for 30 min in 25 mM Tris-HCl pH 7.6, 150 mM NaCl, 2 mM DTT, 1 mM MgCl2; no target DNA; 3.9 Å
[3] = target: T1, Un1Cas12f1 D510A (Cas14a1; catalytically inactive) (UniProt A0A482D308 1-529, D510A); assay: cryo-EM (3.1 A); SEC; 1 mM Mg2+; Complex assembly in 25 mM Tris-HCl pH 7.6, 150 mM NaCl, 2 mM DTT, 1 mM MgCl2, 37 C 30 min; SEC in same buffer; details: protein: recombinant; tags: N-terminal 10xHis-MBP removed by TEV; chain copies: 2; sgRNA; target and non-target DNA strands blunt 60 bp; guide:target heteroduplex 19-20 bp
T1 sequence: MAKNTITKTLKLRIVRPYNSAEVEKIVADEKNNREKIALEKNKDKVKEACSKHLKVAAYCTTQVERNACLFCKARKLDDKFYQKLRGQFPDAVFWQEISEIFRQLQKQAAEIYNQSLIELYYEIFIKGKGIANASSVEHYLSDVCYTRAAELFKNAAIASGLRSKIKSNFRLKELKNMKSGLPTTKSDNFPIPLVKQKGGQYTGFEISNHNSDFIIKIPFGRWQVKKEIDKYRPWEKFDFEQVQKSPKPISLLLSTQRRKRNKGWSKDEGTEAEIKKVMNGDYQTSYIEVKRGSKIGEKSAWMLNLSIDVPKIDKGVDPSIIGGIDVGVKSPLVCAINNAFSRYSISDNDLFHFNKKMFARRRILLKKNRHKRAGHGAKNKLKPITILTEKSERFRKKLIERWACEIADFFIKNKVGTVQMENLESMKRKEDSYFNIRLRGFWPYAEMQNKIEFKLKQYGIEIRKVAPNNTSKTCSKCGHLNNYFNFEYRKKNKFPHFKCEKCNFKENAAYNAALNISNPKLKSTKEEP

[4] = target: T2, Un1Cas12f1 (Cas14a1) (UniProt A0A482D308 1-529); assay: cryo-EM (3.9 A); SEC; 1 mM Mg2+; no target DNA; Complex assembly in 25 mM Tris-HCl pH 7.6, 150 mM NaCl, 2 mM DTT, 1 mM MgCl2, 37 C 30 min; SEC in same buffer; details: protein: recombinant; tags: N-terminal 10xHis-MBP removed by TEV; chain copies: 2; four stem-loops, two AR:R duplexes; 1 copy per Cas12f dimer
T2 sequence: T1 sequence with A510D

B1: Un1Cas12f1 D510A (inactive Cas12f mutant used for the Cas12f-sgRNA-target DNA ternary complex) (enzyme, UniProt A0A482D308 1-529, looked up)
chain: T1 sequence
notes: Cas12f (UnCas12f1 / Un1Cas12f1, also known as Cas14), full length, 529 amino acids, 61.5 kDa; plasmid Addgene #112500; catalytic D510 changed to alanine; three N-terminal and four C-terminal residues are not modelled; also called Cas12f D510A; Cas12f.2; source: E. coli BL21(DE3), purified (Ni-NTA, TEV cleavage, HiTrap SP, Superdex 200); not shown: 10xHis-MBP, N-terminal, cleaved
In the case of B1, the “stoichiometry N” value [1] is reported as 2.

B2: Cas12f (UnCas12f1), used for the Cas12f-sgRNA binary complex (enzyme, UniProt A0A482D308 1-529, looked up)
chain: T1 sequence with A510D
notes: Cas12f (UnCas12f1 / Un1Cas12f1, also known as Cas14), full length, 529 amino acids; plasmid Addgene #112500; The methods say only 'Cas12f proteins' for the binary complex, set against 'Cas12f D510A mutant proteins' for the ternary complex; also called Un1Cas12f1; wild-type Cas12f; source: E. coli BL21(DE3), purified (Ni-NTA, TEV cleavage, HiTrap SP, Superdex 200); not shown: 10xHis-MBP, …
B2: binds [2].

B3: sgRNA + 60-bp target dsDNA (TTTA PAM) (mixed)
RNA: CUUCACUGAUAAAGUGGAGAACCGCUUCACCAAAAGCUGUCCCUUAGGGGAUUAGAACUUGAGUGAAGGUGGGCUGCUUGCAUCAGCCUAAUGUCGAGAAGUGCUUUCUUCGGAAAGUAACCCUCGAAACAAAUUCAUUUUUCCUCUCCAAUUCUGCACAAGAAAGUUGCAGAACCCGAAUAGACGAAUGAAGGAAUGCAACAGUUGACCCAACGUCGCCGG
DNA 1: GCTGATGCATCTAGATTGTGCACGCCGGCGACGTTGGGTCAACTTAAATACGTAAGGTGC
DNA 2: GCACCTTACGTATTTAAGTTGACCCAACGTCGCCGGCGTGCACAATCTAGATGCATCAGC
B3: binds [3].

B4: sgRNA (full length, 222 nt) (structured_RNA)
RNA: B3 RNA
B4: binds [4].
